Assay results published in paper PMC11156922, “PDZ2-conjugated-PLGA nanoparticles are tiny heroes in the battle against SARS-CoV-2” (Scientific Reports, 2024).
No end group written: not given here. *: point of attachment. Biotin = O=C1N[C@H]2[C@H](CS[C@H]2CCCCC(=O)*)N1

Tests used:
[1] = target: Envelope protein (SARS-CoV-2) (UniProt P0DTC4); conditions: cited from earlier work
[2] = target: T1, C-terminal portion of the SARS-CoV-2 Envelope protein, N-terminal biotinylated peptide (SARS-CoV-2); assay: SPR; Biacore X100; biotinylated E peptide immobilised on streptavidin SA chip (target 1000 RU); PDZ2-f-NPs as analyte, 0.0625-30 uM in equivalents of protein; 25 C; HBS-EP (10 mM Hepes pH 7.4, 0.15 M NaCl, 3 mM EDTA, 0.05% P20); steady-state affinity model / Scatchard plot of maximum amplitudes; conditions: both partners purified
T1 construct: also called SARS-CoV-2 E-protein; E-tetradecapeptide
T1 peptide: Biotin-VKNLNSSRVPDLLV

ZO1 PDZ2 (from UniProt Q07157)
Kd [1]: 2100 nM

B1: PDZ2-ZO1 functionalized PLGA-PEG-Bis-sulfone nanoparticles (PDZ2 domain of human ZO-1, His-tagged, conjugated to the nanoparticle surface) (domain or fragment)
chain: KVTLVKSRKNEEYGLRLASHIFVKEISQDSLAARDGNIQEGDVVLKINGTVTENMSLTDAKTLIERSKGKLKMVVQRDE
modifications: His-tag chemically linked to the bis-sulfone (PEG-mono-sulfone) moiety of PLGA-PEG nanoparticles
Kd [2]: 970 ± 310 nM
